Assays:
human serum albumin = target: T1, human serum albumin (human, UniProt P02768 25-609); experiment: column 'Antigen recognized by antibody'
T1 construct: also called HSA

[1] = target: T2, Prostate Specific Antigen (UniProt P07288 25-261); experiment: BIAcore
T2 construct: also called PSA

[2] = target: T2, Prostate Specific Antigen; experiment: column 'Antigen recognized by antibody'
[3] = target: T3, Carcino Embryonic Antigen (UniProt P06731 35-685, limits assumed); experiment: ELISA on coated CEA
T3 construct: also called CEA; CEA tumor antigen
T3 sequence (looked up): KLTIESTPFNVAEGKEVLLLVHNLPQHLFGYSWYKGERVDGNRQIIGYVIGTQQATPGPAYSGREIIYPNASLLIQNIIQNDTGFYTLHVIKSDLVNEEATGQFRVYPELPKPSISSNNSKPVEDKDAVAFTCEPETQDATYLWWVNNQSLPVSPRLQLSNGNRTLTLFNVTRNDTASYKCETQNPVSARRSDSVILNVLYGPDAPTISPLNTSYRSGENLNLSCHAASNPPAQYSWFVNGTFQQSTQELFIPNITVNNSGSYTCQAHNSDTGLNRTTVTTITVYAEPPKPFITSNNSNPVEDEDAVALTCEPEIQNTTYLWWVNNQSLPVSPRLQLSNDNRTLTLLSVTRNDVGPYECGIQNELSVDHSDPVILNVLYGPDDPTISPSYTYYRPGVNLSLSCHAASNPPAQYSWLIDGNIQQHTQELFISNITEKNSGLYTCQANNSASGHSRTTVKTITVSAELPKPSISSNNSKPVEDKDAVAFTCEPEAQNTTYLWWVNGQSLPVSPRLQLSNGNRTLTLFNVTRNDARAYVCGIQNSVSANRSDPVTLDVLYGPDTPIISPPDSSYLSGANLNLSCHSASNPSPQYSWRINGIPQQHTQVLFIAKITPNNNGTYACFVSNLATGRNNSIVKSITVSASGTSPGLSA

[4] = target: T3, Carcino Embryonic Antigen; experiment: column 'Antigen recognized by antibody'
TEM1 [5] = target: T4, TEM1 (UniProt P62593 24-286); experiment: column 'Antigen recognized by antibody'
T4 construct: also called β-lactamase; b-lactamase
T4 sequence (P62593 24-286 limits assumed): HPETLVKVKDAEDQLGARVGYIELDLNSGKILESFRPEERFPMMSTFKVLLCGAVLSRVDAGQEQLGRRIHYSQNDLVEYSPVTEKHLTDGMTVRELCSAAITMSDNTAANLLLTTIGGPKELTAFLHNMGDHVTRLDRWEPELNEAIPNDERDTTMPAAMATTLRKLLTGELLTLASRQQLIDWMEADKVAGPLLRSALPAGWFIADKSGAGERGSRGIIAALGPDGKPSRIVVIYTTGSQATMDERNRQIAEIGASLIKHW

TEM1 [6] = target: T4, TEM1; experiment: IMAC co-purification, Coomassie stained PAGE
β-lactamase = experiment: BIAcore
[7] = target: humanized mouse mAb to CD40; experiment: BIAcore

T2 sequence (P07288 25-261 limits assumed): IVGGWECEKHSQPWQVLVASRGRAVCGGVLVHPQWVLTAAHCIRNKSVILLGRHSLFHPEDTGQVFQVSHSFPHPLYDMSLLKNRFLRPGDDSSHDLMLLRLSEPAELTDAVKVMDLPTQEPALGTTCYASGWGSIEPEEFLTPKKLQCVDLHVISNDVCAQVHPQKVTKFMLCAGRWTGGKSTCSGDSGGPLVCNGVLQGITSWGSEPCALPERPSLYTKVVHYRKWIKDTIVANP
T1 sequence (P02768 25-609 limits assumed): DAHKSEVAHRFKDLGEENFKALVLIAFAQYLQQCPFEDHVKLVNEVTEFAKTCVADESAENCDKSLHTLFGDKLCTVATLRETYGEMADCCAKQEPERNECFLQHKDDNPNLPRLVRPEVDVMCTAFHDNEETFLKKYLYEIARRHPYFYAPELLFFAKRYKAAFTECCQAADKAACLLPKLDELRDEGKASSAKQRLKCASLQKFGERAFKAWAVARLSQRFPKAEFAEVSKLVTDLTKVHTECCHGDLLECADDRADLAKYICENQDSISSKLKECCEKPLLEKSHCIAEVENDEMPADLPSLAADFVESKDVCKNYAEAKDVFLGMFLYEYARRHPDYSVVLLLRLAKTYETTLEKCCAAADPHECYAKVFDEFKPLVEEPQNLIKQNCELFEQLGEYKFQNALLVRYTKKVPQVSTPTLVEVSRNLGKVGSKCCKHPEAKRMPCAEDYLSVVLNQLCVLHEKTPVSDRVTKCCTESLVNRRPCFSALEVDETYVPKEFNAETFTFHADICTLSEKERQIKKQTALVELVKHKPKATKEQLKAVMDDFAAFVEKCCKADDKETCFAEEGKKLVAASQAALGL

B1: ALB-2 (VHH)
VHH: QVQLQESGGGLVQPGGSLRLTCTASGFAFSNFGMSWVRQPPGKGLEWVSAISADSSTKNYADSVKGRFTISRDNTKKMLYLEMNSLKPEDTAVYHCVIGRGSASSQGTQVTVSS
notes: Llama single domain; purified on Ni-NTA
B1: binds (human serum albumin).

B2: ALB-5 (VHH)
VHH: QVQLQESGGGLVQPGGSLRLTCTASGFAFSSFGMSWVRQPPGKGLEWVSAISADSSTKNYADSVKGRFTISRDNDKKMLYLEMNKLKPEDTAVYHCVIGRGSPSSQGTQVTVSS
notes: as for B1
B2: binds (human serum albumin).

B3: C1-B (VHH)
VHH: DVQLQESGGGLVQPGGSLRLSCAASGFTFSTSYMTWARQAPGKGLEWVSGINRDGNNPLYADSVEGRFTVSRDNAKNTLYLQMNSLKSEDTALYYCVAGALVAGARGQGTQVTVSS
notes: Dromedary single domain; purified on Ni-NTA
B3 was tested, and the Kd [1] was 0.8 nM.

B4: ALB-1 (VHH)
VHH: QVQLQESGGGLVQPGGSLRLSCAASGFAFSSFPMTWVRQAPGKGLEWVSGILEGGGSPAYADSVKGRFTISRDDAKNTLYLQMNSLKPEDTAVYYCAKGYVYAREGARSQGTQVTVSS
notes: as for B1
B4: binds (human serum albumin).

B5: N15-B (VHH)
VHH: DVQLQESGGGSVQAGGSLRLACAATAYTYDSNVLGWFRQAPGKEHEGVAVIYTGTRTTYYADSVKGRFTISQDNAKNTVYLQMNSLKPGDTAMYFCAANVRLGGVWSFDYRGQGTQVTVSS
notes: as for B3
B5: binds [2].

B6: N8-B (VHH)
VHH: DVQLQESGGGLVQPGGSLRLSCAASGFLFSDTYMTWARQAPGKGLEWLGGISKDGSGTLYEDSVEGRFTISRDNAKNTLYLQMNSLKSEDTALYYCSTGALLPTRPQGQGTQVTVSS
notes: as for B3
B6 was tested, and the Kd [1] was 1.6 nM.

B7: C12-A (VHH)
VHH: DVQLQESGGGLVRPGGSLRLSCAASGFLFSGTYMTWARQAPGKGLEWLCGINKDGSGTLYADSVEGRFTCSRDNAKNTLYLQMNSLKSEDTALYYCSTGALLPTRPQGQGTQVTVSS
notes: as for B3
For B7, the Kd [1] was 2.6 nM.

B8: N3-A (VHH)
VHH: DVQLQESGGSLVQPGGSLRLSCAASGFTFSAYYMIWVRQAPGKGLEWVSGISANGRDTLYEDSVEGRFAISRDNAKNTLYLQMNSLRSEDTALYYCVIGALITGRRGQGTQVTVSS
notes: as for B3
B8: binds [2].

B9: C11-B (VHH)
VHH: DVQLQESGGGLVQPGGSLRLSCAASGFIFSNTYMTWVRQAPGKGLEWVSGISADGRDTLYADSVEGRFAISRDNAKNTLYLQMNSLRSEDTALYYCVTGALMTGRRGQGTQVTVSS
notes: as for B3
For B9, the Kd [1] was 2.6 nM.

B10: anti-carcinoembryonic antigen VHH CEA71 (wild type) (VHH)
VHH: QVQLVESGGGLVQPGGSLRLSCAASGFTFSSSYMSWVRQAPGKGLEWVSGINTDGSFTRYADSVKGRFTISRDNAKNTLYLQMNSLKSEDTALYYCAVGGGLGYGPRGQGTLVTVSS
notes: also called CEA71 WT; CEA wild type VHH
With B10 the “fold lower concentration at which it binds, against the R103W mutant” value [3] was roughly 10 fold.

B11: CEA72 (VHH)
VHH: QVQLVESGGGLVQPGGSLRLSCAASEFTFSSSYMSWVRQAPGKGLEWVSGINTDGSFTRYADSVKGRFTISRDNAKNTLYLQMNSLKSEDTALYYCAVGGGLGYGPRGQGTQVTVSS
notes: as for B3
B11: binds [4].

B12: anti-β-lactamase VHH TEM04 (wild type) (VHH)
VHH: QVQLVESGGGLVQAGGSLRLSCAASGFTFSSAWMTWVRQAPGKGLEWVTSIATDGSTDYADSVKGRFTISRDNAKNTLYLQLNSLNTEDTAVYYCAKDRWGYVVRGQGTQVTVSS
notes: also called cAbTEM04
B12: binds (TEM1 [5]).

B13: anti-β-lactamase VHH TEM04 R103W mutant (VHH)
VHH: QVQLVESGGGLVQAGGSLRLSCAASGFTFSSAWMTWVRQAPGKGLEWVTSIATDGSTDYADSVKGRFTISRDNAKNTLYLQLNSLNTEDTAVYYCAKDRWGYVVWGQGTQVTVSS
notes: also called VHH TEM04 mutant; TEM04 W (mutant)
B13: binds (TEM1 [6]).

B14: ALB-4 (VHH)
VHH: QVQLQESGGGLVQPGNSLRLSCAASGFSFRSFGMSWVRQAPGKGPEWVSSINSSGDDTRYTDSVKGRFTISRDNAKSTLYLQMNSLKPEDTAVYYCTIGSSISRSSQGTQVTVSS
notes: as for B1
B14: binds (human serum albumin).

B15: N13-A (VHH)
VHH: DVQLQESGGGSVQPGGSLRLSCAASGFTFKDASMNWVRQAPGKGLEWVSAINGGGTVTDYADPMEGRFTISRDNAKNTLYLQMNSLNFEDTALYYCATGWLFRANNYRGQGTQVTVSS
notes: as for B3
B15: binds [2].

B16: CEA1 (VHH)
VHH: QVQLVESGGGLVQPGGSLRLSCAASGFTFSKYDMSWVRQAPGKGLEWVSRISSGGGSTYYADSVKGRFTISRDNAKNTLYLQMNSLKPEDTAVYYCATPTYSSDYRGLPPGQGTQVTVSS
notes: as for B3
B16: binds [4].

B17: C9-B (VHH)
VHH: DVQLQESGGGLVQPGGSLRLSCAASGFTFSNHYMTWVRQAPGKGLEWVSVISNDGRYTDYADSVKGRFTISRDNAKNTLYLQMNSLKTEDTALYTCVRGYYLTNLPAGDRGQGTQVTVSS
notes: as for B3
B17 showed a Kd [1] of 3.9 nM.

B18: C24-A (VHH)
VHH: DVQLQESGGGLVQPGGSLRLSCAASGFAFTPSYMSWVRQAPGKGLEWVSVISNDGRYTDYADSVKGRFTISRDNAKNTLYLQMNSLKTEDTALYTCVRGYYLTNLPAGDRGQGTQVTVSS
notes: as for B3
B18: binds [2].

B19: cAbBLA01 (VHH)
VHH: QLQLVESGGGSVQSGGSLRLSCKVSGYIGSTNCMGWFRQAPGKEREGVASLFTGSGNTYYGDSVKGRFTISEDNAKNTVSLQMNSLKPEDTAMYYCASSSNVGSDESCGRKNTRQFVYTYQGQGTQVTVSS
For B19, the Kd (β-lactamase) was less than 1 nM.

B20: CD40-1 (VHH)
VHH: QVQLVESGGGLVQPGGSLRLSCAASGFAFSRYSMYWVRQAPGKGLEWVSEIYPDGNGWYTSSVKGRFTISRDNDKNMLYLQMNSLKPDDTAVYYCALSRSGQGRGQGTRVTVSS
B20 was tested, and the Kd [7] was 2 nM.

B21: ALB-3 (VHH)
VHH: QVQLQESGGGLVQPGNSLRLSCAASGFAFGNFGMSWVRQAPGKEPEWVSSIDSIGSDTLYADFVKGRFTISRDNAKSTLYLQMNSLKPEDTAVYYCTIGGSLSRSSQGTQVTVSS
notes: as for B1
B21: binds (human serum albumin).
